Test results published in US20220064277A1 (NEURACLE SCIENCE, published 2022).

Target: human FAM19A5-Fc protein (Lot# 170815) (human, UniProt Q7Z5A7 44-132)
Assay: cell-based or functional assay

Sequence of human FAM19A5-Fc protein (Lot# 170815) (Q7Z5A7 other isoform, or with tags, fused parts or gaps): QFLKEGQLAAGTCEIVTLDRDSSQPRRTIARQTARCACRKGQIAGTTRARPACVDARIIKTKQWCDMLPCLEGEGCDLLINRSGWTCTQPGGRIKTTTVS

B1: anti-FAM19A5 antibody (clone "1-30"; Lot# A5m180831) (antibody, V domains shown)
VH: AVTLDESGGGLQTPGGALRLSCKASGFDFESFNMFWVRQAPGKGLEYVSQISSSEEDENYAPAVKGRATISRDNGQSTLYLQMNSLRAEDTGTYYCAKSSYDCPYGHCSSGVDSAGEIDAWGHGTEVIVSS
VL: ALTQPSSVSANPGETVKITCSGGGSEEEQYYYGWYQQKPGSAPVTLIYQDEERPSDIPSRFSGSTSGSTATLTITGVQAGDEADYYCGSWDSEDEDHFGAGTTLTVL
IC50 for inhibition of the FAM19A5-Fc-enhanced TNF-α production by LPS-stimulated BV2 cells (mouse TNF-α ELISA): 11.5 µg/mL
